From US10428140B2, “Anti-EphA4 antibody” (EISAI R&D MANAGEMENT CO., LTD., priority 2015, dated 2019)
Residue numbers refer to the chain shown, from its start.

T1: human EphB4 (Homo sapiens, UniProt P54760)
T1 construct: a protein of the extracellular region of each human Eph receptor fused with the SEAP protein and the His tag; made in house; host or cells: Expi293F cells
T1 sequence (P54760 16-539 limits assumed): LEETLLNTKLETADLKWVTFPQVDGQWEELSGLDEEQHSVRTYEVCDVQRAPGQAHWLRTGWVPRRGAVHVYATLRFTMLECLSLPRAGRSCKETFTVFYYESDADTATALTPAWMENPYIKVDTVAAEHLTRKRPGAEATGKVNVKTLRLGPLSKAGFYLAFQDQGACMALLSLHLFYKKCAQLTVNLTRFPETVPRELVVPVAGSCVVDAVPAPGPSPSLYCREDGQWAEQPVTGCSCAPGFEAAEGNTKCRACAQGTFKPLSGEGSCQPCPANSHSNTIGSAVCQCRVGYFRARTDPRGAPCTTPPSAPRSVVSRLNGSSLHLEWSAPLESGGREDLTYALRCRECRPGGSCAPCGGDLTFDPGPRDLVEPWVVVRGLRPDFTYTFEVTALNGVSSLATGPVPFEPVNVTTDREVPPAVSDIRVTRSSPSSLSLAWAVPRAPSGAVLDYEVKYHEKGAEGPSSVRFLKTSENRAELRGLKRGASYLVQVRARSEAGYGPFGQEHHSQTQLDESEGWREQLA

T2: human EphA1 (Homo sapiens, UniProt P21709)
T2 construct: a protein of the extracellular region of each human Eph receptor fused with the SEAP protein and the His tag; made in house; host or cells: Expi293F cells (culture supernatant)
T2 sequence (P21709 26-547 limits assumed): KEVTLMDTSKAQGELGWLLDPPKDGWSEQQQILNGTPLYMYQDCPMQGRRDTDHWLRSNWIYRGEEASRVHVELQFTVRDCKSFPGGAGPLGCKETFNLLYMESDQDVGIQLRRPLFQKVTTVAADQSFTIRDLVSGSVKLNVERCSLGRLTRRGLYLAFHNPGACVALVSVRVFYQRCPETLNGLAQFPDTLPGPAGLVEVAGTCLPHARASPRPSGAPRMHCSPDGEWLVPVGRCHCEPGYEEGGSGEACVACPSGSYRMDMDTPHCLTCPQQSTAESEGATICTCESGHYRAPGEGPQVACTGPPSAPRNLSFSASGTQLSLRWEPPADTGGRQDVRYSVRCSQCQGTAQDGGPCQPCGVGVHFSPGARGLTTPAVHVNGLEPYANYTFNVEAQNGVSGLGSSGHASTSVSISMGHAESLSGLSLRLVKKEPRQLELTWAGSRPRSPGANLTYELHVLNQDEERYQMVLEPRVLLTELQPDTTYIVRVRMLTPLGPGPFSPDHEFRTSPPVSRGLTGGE

B1: 89 (antibody, V domains shown)
VL: DIQMTQSPSSLSASVGDRVTITCRASENIYRNLAWYQQKPGKAPQLLLYAATNLADGVPSRFSGSGSGTDYTLTISSLQPEDFATYYCQHFWGTPWTFGQGTKVEIK
VH: QIQLVQSGSELKKPGASVKVSCKASGYTFTDYSMHWVRQAPGQGLKWMGWINTETGEPTYAQGFTGRFVFSLDTSVSTAYLQISSLKAEDTAVYYCARIPLYYYGSRYWYFDVWGQGTTVTVSS
modifications: constant regions without entry; synthetic humanized antibody light chain variable region sequence; synthetic humanized antibody heavy chain variable region sequence
B2: 92 (antibody, V domains shown)
VL: B1 VL
VH: B1 VH with Q62D, G63D, T65K
modifications: constant regions without entry; synthetic humanized antibody light chain variable region sequence; synthetic humanized antibody heavy chain variable region sequence
B3: 90 (antibody, V domains shown)
VL: B1 VL
VH: B1 VH with I2V, K46E, Q62D, G63D, T65K
modifications: constant regions without entry; synthetic humanized antibody light chain variable region sequence; synthetic humanized antibody heavy chain variable region sequence
B4: 94 (antibody, V domains shown)
VL: EIVMTQSPATLSVSPGERATLSCRASENIYRNLAWYQQKPGQSPRLLIYAATNLADGIPARFSGSGSGTEYTLTISSLQSEDFAVYYCQHFWGTPWTFGQGTKVEIK
VH: B1 VH with I2V
modifications: constant regions without entry; synthetic humanized antibody light chain variable region sequence; synthetic humanized antibody heavy chain variable region sequence
B5: 91 (antibody, V domains shown)
VL: B1 VL
VH: B1 VH with I2V, Q62D, G63D, T65K
modifications: constant regions without entry; synthetic humanized antibody light chain variable region sequence; synthetic humanized antibody heavy chain variable region sequence
B6: 95 (antibody, V domains shown)
VL: B4 VL
VH: B1 VH with I2V, K46E, Q62D, G63D, T65K
modifications: constant regions without entry; synthetic humanized antibody light chain variable region sequence; synthetic humanized antibody heavy chain variable region sequence
B7: 139 (antibody)
VH: B1 VH with I2V, K46E
VL: B1 VL with Q45K, L48V
chain: ASTKGPSVFPLAPSSRSTSESTAALGCLVKDYFPEPVTVSWNSGALTSGVHTFPAVLQSSGLYSLSSVVTVPSSNFGTQTYTCNVDHKPSNTKVDKTVERKSCVECPPCPAPPAAAPSVFLFPPKPKDTLMISRTPEVTCVVVDVSHEDPEVQFNWYVDGVEVHNAKTKPREEQFNSTFRVVSVLTVVHQDWLNGKEYKCKVSNKGLPAPIEKTISKTKGQPREPQVYTLPPSREEMTKNQVSLTCLVKGFYPSDIAVEWESNGQPENNYKTTPPMLDSDGSFFLYSKLTVDKSRWQQGNVFSCSVMHEALHNHYTQKSLSLSPG
modifications: synthetic humanized antibody heavy chain variable region sequence; synthetic humanized antibody light chain variable region sequence; synthetic antibody constant region sequence
B8: 93 (antibody, V domains shown)
VL: B4 VL
VH: B1 VH with I2V, K46E
modifications: constant regions without entry; synthetic humanized antibody light chain variable region sequence; synthetic humanized antibody heavy chain variable region sequence
B9: 73 (antibody, V domains shown)
VH: B1 VH with Q62D, G63D, T65K
VL: B4 VL
modifications: synthetic humanized antibody heavy chain variable region sequence; synthetic humanized antibody light chain variable region sequence
B10: 71 (antibody, V domains shown)
VH: B1 VH
VL: B4 VL
modifications: synthetic humanized antibody heavy chain variable region sequence; synthetic humanized antibody light chain variable region sequence
B11: 96 (antibody, V domains shown)
VL: B4 VL
VH: B1 VH with I2V, Q62D, G63D, T65K
modifications: constant regions without entry; synthetic humanized antibody light chain variable region sequence; synthetic humanized antibody heavy chain variable region sequence

Each molecule was assayed against T1, human EphB4 (assay: Selectivity ELISA of humanized antibodies for human Eph receptor). Settings: coated protein 1 nM.
Format: binding
Summary of the method: (§1)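 Capture ELISA: anti-6-His coat, 1% BlockAce block, Eph ECD-SEAP-His (1 nM final, Expi293F supernatant) 1 h RT, humanized Ab 1 h RT, HRP anti-IgG 1 h RT, TMB, H2SO4 stop, A450.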

hEphB4-SEAP-: absorbance at 450 nm, percentage with respect to hEphA4-SEAP-His as 100% | Molecule
5.8% | B1
6.6% | B2
5.0% | B3
6.5% | B4
6.2% | B5
4.6% | B6
5.7% | B7
5.0% | B8
5.7% | B9
5.5% | B10
5.5% | B11

These molecules were tested against T2, human EphA1 in the same assay as above. Settings: coated protein 1 nM.
Format: binding
Summary of the method: as §1

hEphA1-SEAP-: absorbance at 450 nm, percentage with respect to hEphA4-SEAP-His as 100% | Molecule
5.5% | B1
7.0% | B2
5.1% | B3
6.5% | B4
5.8% | B5
4.5% | B6
5.7% | B7
5.0% | B8
6.0% | B9
5.6% | B10
5.6% | B11

The molecules below were run against T3, human EphA4 (Homo sapiens, UniProt P54764) in the same assay as above. Settings: coated protein 1 nM; reference set to 100%.
T3 construct: made in house; not restated for the human SEAP-His protein
Format: binding
Summary of the method: as §1

T3 sequence (P54764 20-547): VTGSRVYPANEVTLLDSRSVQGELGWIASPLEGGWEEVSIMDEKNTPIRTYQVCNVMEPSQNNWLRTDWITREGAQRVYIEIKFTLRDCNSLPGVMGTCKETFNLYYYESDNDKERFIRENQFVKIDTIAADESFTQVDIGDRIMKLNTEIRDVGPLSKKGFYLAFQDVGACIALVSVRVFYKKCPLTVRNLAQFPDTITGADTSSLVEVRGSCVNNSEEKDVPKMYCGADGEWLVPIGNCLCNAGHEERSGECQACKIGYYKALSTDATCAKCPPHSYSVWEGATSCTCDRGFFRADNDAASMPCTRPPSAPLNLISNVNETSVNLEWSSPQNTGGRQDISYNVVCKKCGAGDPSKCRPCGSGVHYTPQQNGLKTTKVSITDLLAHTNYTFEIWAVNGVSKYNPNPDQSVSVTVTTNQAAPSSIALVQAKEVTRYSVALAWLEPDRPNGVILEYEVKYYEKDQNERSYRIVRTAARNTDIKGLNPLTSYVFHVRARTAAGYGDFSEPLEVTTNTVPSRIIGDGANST

hEphA4-SEAP-: absorbance at 450 nm, percentage with respect to hEphA4-SEAP-His as 100% | Molecule
100% | B1
100% | B2
100% | B3
100% | B4
100% | B5
100% | B6
100% | B7
100% | B8
100% | B9
100% | B10
100% | B11
